{
  "source": "the DeepSol protein solubility set",
  "data": [
    {"test": "soluble on expression in E. coli; label from the status in PepcDB or PDB records", "values": [
      {"sequence": "MAHHHHHHMFSEPVYLTIGDEYEKRAVKPSKSRGRNFIVPVKRSPHITDAVFQKSFISLAVGDEYLPPPPGGTFRQPAEKKPGEPQPLPFKPPSRPHKSCGSGSYYGTFNEKNPPKHEPETTIAEVKKSGANAPAGTVRKPNLYTNPGKKGTYGYTGLTLGRAGEVQYISDPVGCCSGQRTHSPRTQAPFSAAVKCGGCFDEGPHGFSTVYGMNKPLPMRKVPPQRVLPPMKPWRPAGALVREITRHPEYQEDPYDLKEKRLREERLKEQSHKPWFPCGTDAYRHIYTYPVPYNPPPVV", "soluble on expression in E. coli": "not soluble"},
      {"sequence": "MGKFSKIKKVQEEESAHQKMEWEAAGAKDSSSDDSSDESDNDDQPKQATEETRKRAELWTNRERVLVLCSRGADVRTRYLMKDIKDLLPHAKGDSKLDQQKSLNVLNEIAEMKNCTKVMYFESRKRKDTYLWMSNVEKGPSIKFLVHNVHTMKELKMSGNCLRASRPVLSFDDAFDKKPQLKLIKAVLMQTLGTPHHHPRSQPFVDHVFNFSVGEGDKIWFRNFQIVDESLQLQEVGPRFVLEMVRLFAGSFEGAVLYDNPNYVSPNVIRREHRKGQHSYIEKQLAVKASNIKQAKVTEILAEKTVDLVGKEFDTQNNAAADSEAAAQITAQIEKRRVRKKKSQASKYTGSD", "soluble on expression in E. coli": "soluble"},
      {"sequence": "MCAHEGKQYKNDTTFISQGSFRMKCVTFKNLTSTLEVISCITPAGVEISIGTQLEEGDKVFECTPGNVTLKSTPGQTGKCRGVYSVGDTWVEDSFRLLCEPYGKVNLKSCISKEGVEIPLGEARRVPAGYAMECVTVNGNVALQTAKTFDCETGTGEIKKFGDTWNEGNFVRRCANYGVSAIIGCYADGVGSIGLNQNMTSGDFLYMCINQNEQFKFRTLKAT", "soluble on expression in E. coli": "not soluble"},
      {"sequence": "DITGIPSGFNDLDQKTSGFQPGDLIIVAGRPSMGKTAFALNIGEHVALETSKPVAVFSMEMGGVQLAMRMLGSIGRLDQHKMRTGQLNDDDWPRLTHALGKLNDAPIFIDESAGLNSLELRARARRLYRQHEGLGLIIIDYLQLMSATSPGSENRAAEISEISRSLKALAKELQVPVIALSQLNRGLEQRPNKRPIMSDL", "soluble on expression in E. coli": "not soluble"},
      {"sequence": "MGHHHHHHSHMALAARLLPQFLHSRSLPCGAVRLRTPAVAEVRLPSATLCYFCRCRLGLGAALFPRSARALAASALPAQGSRWPVLSSPGLPAAFASFPACPQRSYSTEEKPQQHQKTKMIVLGFSNPINWVRTRIKAFLIWAYFDKEFSITEFSEGAKQAFAHVSKLLSQCKFDLLEELVAKEVLHALKEKVTSLPDNHKNALAANIDEIVFTSTGGISIYYDEKGRKFVNILMCFWYLTSANIPSETLRGASVFQVKLGNQNVETKQLLSASYEFQREFTQGVKPDWTIARIEHSKLLE", "soluble on expression in E. coli": "not soluble"},
      {"sequence": "MAHHHHHHMKQSIVTPLRSPLHCATPLPLTFFPSYRRWLPVVRHASRRPHGVFEQRRRGRPHGSTKRVLRHCDAARRVAVVQQKLHVRHVPAIGTKKPTQSHIGSHKAAVAFHRHDSTFLNGVPPNHHTHRRSPRRQFVLRKQTKRFHQEGAVAPLGLVKNGPRPQRTAGITERVYSISLRVTFQKKVSLAAKPVHQLSIDALHALRGVLRRDTSVRKNNPLAHHSHRMLKNVQAVGTLWAKGRRVRLFSSKGTHNIRVYVVEDAQDIHQLMVAHKKNKFPARLHCLPLQGGKKVVNLVGVEPAISDVAKLDNYRRTSNPAILGIRNICQLQYLATAKNIAMNVSKRNQAGLSAADVYRLHVQKRHKICRSAKK", "soluble on expression in E. coli": "not soluble"},
      {"sequence": "MCEATYGGASPQIRRQRFVILGMSDDPHPFFPPAAMTAIASGKIFSGGKRHHEIVRGLLPADAEWIDITVPLDDVFARYREYEEIVVFASGDPLFFGFANTVMNRLPDAVVTVYPTFNSLQMLAHALRMPYHDMRIVSLTGRPWHEFDRALIERAEKIGILTDHEHTPSAIAMRMLDYGYEDYTMSVGTRMGNPQEQCLDTFSLREAADRDFERPNCVILSATRPFVCSRAPLGLSESAFMPLNGRTKMITKMPFRLVSLSCLELHRASSFWDIGFCTGSVSIEAKLNFPHLHITAFEIRPEGAELMPVNSRRFGAPGIAYRIGDFMEEDISSLAPPDAVFIGGHGGRLVEMIAKVHSVMTKGGLLVFNSVSEESRHLFLTGIEACGMELLSSIRLTADGNNPIDILQARKKE", "soluble on expression in E. coli": "not soluble"},
      {"sequence": "GMKLYKLLILDIDGTLRDEVYGIPESAKHAIRLCQKNHCSVVICTGRSMGTIQDDVLSLGVDGYIAGGGNYIQYHGELLYNQSFNQRLIKEVVCLLKKREVAFSIESQEKVFMNQKAKEIFETMNQLKGTNSCINKQHIQEKITYENNIEEYKSQDIHKICLWSNEKVFDEVKDILQDKMELAQRDISSQYYEIIQKDFHKGKAIKRLQERLGVTQKETICFGDGQNDIVMFQASDVTIAMKNSHQQLKDIATSICEDIFDNGIYKELKRRNII", "soluble on expression in E. coli": "soluble"},
      {"sequence": "MSLRVDTLIRGGVVLTMDGDFTRHDAGYVAVTGGRISHVGADADAAGLSAERVIDAEGGIILPGFVNTHCHAAMTLFRGLADDVDLDGFLRTVWRAEAEHIGPASVELGAELAIAEMALSGVTHFLDMYWYPEATIAAAQRVGMGLTSGPPMLNVEGVDGMGWAERMAYTEGFLERYSGVDGVQPMLLPHGCYTLDADKLAEIANLARAAGCGVHIHAAEAAWEMQLVRDAYGTTPVRALERAGLLEQPLLLAHAVHLDGEEIALLADAGAGVAHCPLSNAKLASGMAPIGEMRASGVTLSLGTDGPASGNDLDMFATMRLAALVHNLRSGTSDTLPARDLVAMATSGGAMALGLGARTGSLEVGKQADITVVATDAPHNVPSYCPYSTLVFSAGRSEVRHVLARGRALVADGRPTTPTEPVKAEVRRLAADIANRRDEGHHHHHH", "soluble on expression in E. coli": "soluble"},
      {"sequence": "MSKQDLLLEIGLEEMPARFLNESMVQLGDKLTGWLKEKNITHGEVKLFNTPRRLAVFVKDVAEKQDDIKEEAKGPAKKIALDADGNWTKAAIGFSKGQGANVEDLYIKEVKGIEYVFVQKFQAGQETKSLLPELSGLITSLHFPKNMRWGNEDLRYIRPIKWIVALFGQDVIPFSITNVESGRTTQGHRFLGHEVSIESPSAYEEQLKGQHVIADPSVRKQMIQSQLETMAAENNWSIPVDEDLLDEVNHLVEYPTALYGSFESEFLSIPEEVLVTTMKEHQRYFPVKDKNGDLLPHFITVRNGNSHAIENVARGNEKVLRARLSDASFFYKEDQKLNIDANVKKLENIVFHEELGSLADKVRRVTSIAEKLAVRLQADEDTLKHVKRAAEISKFDLVTHMIYEFPELQGIMGEKYARMLGEDEAVAAAVNEHYMPRSAGGETPSTFTGAVVAMADKLDTIASFFSIGVIPTGSQDPYGLPRQASGIVAILLDRNWGISFEELLTFVQTDKENELLDFFTQRLKYVLNAEQIRHDVIDAVLESSELEPYSALHKAQVLEQKLGAPGFKETAEALGRVISISKKGVRGDIQPDLFENEYEAKLFDAYQTAKENLQENFSKKDYEAALASLAALKEPIDAYFDHTMVIADNESLKANRLAQMVSLADEIKSFANMNALI", "soluble on expression in E. coli": "not soluble"},
      {"sequence": "GPSLSGELHIFCSVTAAYSHLPPILDRFRAEHPSVEIKLTTGDAADAMEKVVTGEADLAIAGKPETLPGAVAFSMLENLAVVLIAPALPCPVRNQVSADKPDWSTVPFIMADQGPVRRRIELWFRRNKISNPMIYATVGGHEAMV", "soluble on expression in E. coli": "not soluble"},
      {"sequence": "MEQETLEQVHLTEDGGVVKTILRKGEGGEENAPKKGNEVTVHYVGKLESSGKVFDSSRERNVPFKFHLGQGEVIKGWDICVASMTKNEKCSVRLDSKYGYGEEGCGESIPGNSVLIFEIELISFRE", "soluble on expression in E. coli": "soluble"},
      {"sequence": "MHVSPFDWRYGSEEIRRLFTNEAIINAYLEVERALVCALEELGVAERGCCEKVNKASVSADEVYRLERETGHDILSLVLLLEQKSGCRYVHYGATSNDIIDTAWALLIRRALAAVKEKARAVGDQLASMARKYKTLEMVGRTHGQWAEPITLGFKFANYYYELYIACRQLALAEEFIRAKIGGAVGTMASWGELGLEVRRRVAERLGLPHHVITTQVAPRESFAVLASALALMAAVFERLAVEIRELSRPEIGEVVEGGGGSSAMPHKANPTASERIVSLARYVRALTHVAFENVALWHERDLTNSANERVWIPEALLALDEILTSALRVLKNVYIDEERITENLQKALPYILTEFHMNRMIKEGASRAEAYKKAKEVKALTFEYQKWPVERLIEDALSLKLC", "soluble on expression in E. coli": "soluble"}
    ]}
  ]
}
